Tested on: MS2 coat protein
Experiment: apparent KD of MS2 coat protein; designed switch direction (-1 OFF switch, 1 ON switch): -1; higher = weaker reporter binding
Outline: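 Transcription of designed RNA switches on Illumina chips was done by stalled E. coli RNA polymerase. SNAP-549-labelled MS2 coat protein was then titrated in doubling steps from 0.7 or 1.5 nM to 3 µM, with steps of 0.8–1.5 h at the lowest and 10–20 min at the highest concentration. The per-design median over clusters of curve-fitted normalised fluorescence is reported as apparent KD.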

[1] = input ligand: microRNA oligo, concentration not stated
[2] = Eterna round: R95, input ligand: microRNA oligo, concentration not stated
[3] = Eterna round: R95, input ligand: FMN 200 uM
[4] = Eterna round: R95, input ligand: none

UACAUGAGGAUCACCCAUGUUUUGUCGUGUAUGGUAUUUAUCUAGGAUAUCAUUGUAUUUAGUUAUGAGAAGGAGAAUAUUAAU [JMF's solution 83] (Eterna round: R96, puzzle: Exclusion NG 3)
apparent KD of MS2 coat protein (input ligand: FMN 200 uM): 30.2 nM
apparent KD of MS2 coat protein [1]: 22.9 nM
apparent KD of MS2 coat protein (input ligand: none): 33 nM

UACCUCACUUCUUUGACUCACAUGAGGAUCACCCAUGUAAUAUAGGAUAUGCAUUUUAUUUCUUUGCAGAAGGAUAUUAGUUUU [JR_ExcNG3_Sub089] (Eterna round: R96, puzzle: Exclusion NG 3)
apparent KD of MS2 coat protein [1]: 31.3 nM

UACUAUAAGGAGGAUAUCGUAUCGGAAACGAUACGAGAAGGCUUAACAUGAGGAUCACCCAUGUUCUUCAAUAA [Fiskers Ex 6 - 25] (puzzle: Exclusion 6)
apparent KD of MS2 coat protein [2]: 16.2 nM

UACUAUAAGGAGGAUAUCGUAUCGGAAACGAUACGAGAAGGCUUAACAUGAGGAUCACCCAUGUUCUUCAAUAU [Fiskers Ex 6 - 26] (puzzle: Exclusion 6)
apparent KD of MS2 coat protein [3]: 16 nM
apparent KD of MS2 coat protein [2]: 16.2 nM
apparent KD of MS2 coat protein [4]: 14.6 nM

UAGAAGGUAGGAUAUACGAAUAAAUAGGGUAGUAAUAAUACACAUGAGGAUCACCCAUGUAGAAGGACCAAGAU [Mat - Exclusion 2 - Mod of my Tesla design - D31] (puzzle: Exclusion 2)
apparent KD of MS2 coat protein [3]: 44.2 nM
apparent KD of MS2 coat protein [2]: 20.1 nM
apparent KD of MS2 coat protein [4]: 23 nM

UAGAGACAUGAGGAUCACCCAUGUGAGGAUAUAGAGAAAGAUUGCGAGAGGGAGAGGACUAGAAGGCACAGUGA [JR_Exclu1_Sub033] (puzzle: Exclusion 1)
apparent KD of MS2 coat protein [3]: 39.1 nM
apparent KD of MS2 coat protein [2]: 48.8 nM
apparent KD of MS2 coat protein [4]: 51.9 nM

UAGAUGGCUCAGGAUAUUUGCCAACUAACUCGCGAAGAAGGGAGCACAUGAGGAUCACCCAUGUGAUCGAACGG [Rila] (puzzle: Exclusion 6)
apparent KD of MS2 coat protein [2]: 16.3 nM

UAGAUGGGAGGAUAUACAUAGAUACAGAUUCAUGUAGUGCUACAUGAGGAUCACCCAUGUAGAAGGCCCGUCUU [JL-ex2-2.18 Mayanne mod] (Eterna round: R96, puzzle: Exclusion 2)
apparent KD of MS2 coat protein (input ligand: FMN 200 uM): 407 nM
apparent KD of MS2 coat protein [1]: 33.2 nM
apparent KD of MS2 coat protein (input ligand: none): 37.9 nM

UAGAUGGGAGGAUAUACAUAGAUACAGAUUCAUGUAGUGCUACAUGAGGAUCACCCAUGUAGAAGGCCCGUCUU [JL-ex2-2.18 Mayanne mod] (puzzle: Exclusion 2)
apparent KD of MS2 coat protein [2]: 31.6 nM

UAGAUGGGAGGAUAUGCGUAGAUGCGGAUUCGUGUGGUGCUACAUGAGGAUCACCCAUGUAGAAGGCCCGUCUU [JL-ex2-2.26 Mayanne mod] (puzzle: Exclusion 2)
apparent KD of MS2 coat protein [2]: 13.5 nM

UAGAUGUGAGGAUAUACAUGAAUGCAGGAUCGUGUGGUGCUACAUGAGGAUCACCCAUGUAGAAGGCACGUCUU [Mod 9 R3 JL-ex2-2.29 - Jieux - Exclusion 2] (Eterna round: R97, puzzle: Exclusion 2)
apparent KD of MS2 coat protein (input ligand: FMN 200 uM): 20 nM
apparent KD of MS2 coat protein (input ligand: none): 13.9 nM

UAGCAUUGCCUUUGGUAGUGCUUUACAUGAGGAUCACCCAUGUAGGAUAUGGUAGGCUUUGCUUACCAGAAGGACAUGAUAAUU [JL ENG3 1.04] (Eterna round: R96, puzzle: Exclusion NG 3)
apparent KD of MS2 coat protein [1]: 52.3 nM

UAGCUUCCGGUCAGGAUAUACGCUGGCGAAUAGCAGUAGAAGGGACAUGAGGAUCACCCAUGUGGGUUCAAAGA [Zabetima] (puzzle: Brourd's mod of Exclusion 4)
apparent KD of MS2 coat protein [3]: 91 nM
apparent KD of MS2 coat protein [2]: 39.4 nM
apparent KD of MS2 coat protein [4]: 44.2 nM

UAGGUGUGAGGAUAUGGUAAAGAUAAGAUGAUGAAAGAACUCCAGAAGGCACAUGAGGAUCACCCAUGUAGAUA [Mat - Exclusion 4 - Mod of JL - D31] (puzzle: Exclusion 4)
apparent KD of MS2 coat protein [3]: 34.9 nM
apparent KD of MS2 coat protein [2]: 20 nM
apparent KD of MS2 coat protein [4]: 20.5 nM

UAGUAGCAAGGAUAUACAGAGGAGAGGAUUGCAAGAGGUGGACAUGAGGAUCACCCAUGUAGAAGGUGCAGAGA [JR_Exclu2_Sub021] (puzzle: Exclusion 2)
apparent KD of MS2 coat protein [3]: 310 nM
apparent KD of MS2 coat protein [2]: 275 nM
apparent KD of MS2 coat protein [4]: 362 nM

UAGUGCUGAGGAUAUACAUGAGGAUCACCCAUGUGCCUUUAACUUAAAGUGUGCACAAGUAGAAGGCGGUGCAA [Eternabot (L1) Solution 93] (Eterna round: R97, puzzle: Exclusion 3)
apparent KD of MS2 coat protein (input ligand: FMN 200 uM): 20 nM
apparent KD of MS2 coat protein (input ligand: none): 19.5 nM

UAUACUAGAUAGGAUAUACUAUAUAAAUAAUUCGUAGAAGGAUCUACAUGAGGAUCACCCAUGUUAACAGCAGU [JR_E6_Sub005] (puzzle: Exclusion 6)
apparent KD of MS2 coat protein [3]: 30.7 nM
apparent KD of MS2 coat protein [2]: 46.6 nM
apparent KD of MS2 coat protein [4]: 46.6 nM

Source: the supplement of paper PMC9170038
